The target in data set [1] is T1, 6His-TrpC (Escherichia coli, UniProt P00909).
T1 construct: inserting the PCR products amplified from E. coli S028 with primers EcoRI-6H-trpC and trpC-XbaI; made in house; host or cells: E. coli Top10
Nature of the data set: IGPs enzyme assay, inhibition by anthranilate. In kind it is biochemical.
Description: (§3) The activity of IGPs from E. coli was measured by monitoring the formation of IGP via absorbance at 278 nm [23] with a molar extinction coefficient value of 5500 M^−1 cm^−1 [24]. Assays were performed in 50 mM HEPPS pH 7.5, 4 mM EDTA at 30° C. with 20-25 μg/mL of purified enzymes in cuvettes. To investigate the effect of anthranilate on the activity of IGPs, the activities were measured in the presence of different concentrations of anthranilate. Unless stated otherwise, the reactions were started by adding 180 μM of the substrate CdRP. […] The concentration of the synthesized CdRP in the stock solution was determined by measuring the concentrations of the product IGP with completely converted reactions.
In order to figure out whether the PRAi domain has an influence on the inhibition resistance of eIGPs, the effect of anthranilate on the activity of IGPs in the form of eIGPs-PRAi (6His-TrpC) was tested.

Data set [2] deals with T2, eIGPs-6His (Escherichia coli, UniProt P00909).
T2 construct: made in house; host or cells: E. coli BL21
Description: IGPs enzyme assay, inhibition by anthranilate. In kind it is biochemical. The procedure:
(§1) The activity of IGPs from E. coli was measured by monitoring the formation of IGP via absorbance at 278 nm with a molar extinction coefficient value of 5500 M^−1 cm^−1 [24]. Assays were performed in 50 mM HEPPS pH 7.5, 4 mM EDTA at 30° C. with 20-25 μg/mL of purified enzymes in cuvettes. To investigate the effect of anthranilate on the activity of IGPs, the activities were measured in the presence of different concentrations of anthranilate. Unless stated otherwise, the reactions were started by adding 180 μM of the substrate CdRP. The synthesis of CdRP was performed by following the improved method reported by Kirschner et al.. The concentration of the synthesized CdRP in the stock solution was determined by measuring the concentrations of the product IGP with completely converted reactions.
To elucidate the effect of anthranilate on the enzyme activity of eIGPs, the catalytic activity of the isolated eIGPs (eIGPs-6His) was examined in the presence of different concentrations of anthranilate. […] The inhibition constant (IC50, 50% inhibitory concentration) of eIGPs-6His was measured to be about 0.70 mM.

The target of data set [3] is T3, ScTrpC (Saccharomyces cerevisiae, UniProt P00937).
T3 sequence (P00937 1-484): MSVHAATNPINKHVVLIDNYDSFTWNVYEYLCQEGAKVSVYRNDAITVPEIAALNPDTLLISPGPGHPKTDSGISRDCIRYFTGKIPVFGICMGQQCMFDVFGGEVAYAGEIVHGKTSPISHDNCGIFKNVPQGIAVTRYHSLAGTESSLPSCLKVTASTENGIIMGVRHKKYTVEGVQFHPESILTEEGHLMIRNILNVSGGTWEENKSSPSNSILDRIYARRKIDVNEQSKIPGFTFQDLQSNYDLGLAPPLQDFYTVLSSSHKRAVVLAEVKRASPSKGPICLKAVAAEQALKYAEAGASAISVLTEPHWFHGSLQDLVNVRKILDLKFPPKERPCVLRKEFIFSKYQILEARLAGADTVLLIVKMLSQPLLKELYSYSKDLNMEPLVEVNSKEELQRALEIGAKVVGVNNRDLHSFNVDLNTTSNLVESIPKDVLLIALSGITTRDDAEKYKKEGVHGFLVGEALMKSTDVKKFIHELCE
Nature of the data set: Effect of anthranilate on IGPs activity of TrpC. Format: biochemical. The following applies: FIG. 7.

Data set [4] concerns the target T4, ScIGPs (ScTrpC without anthranilate synthase II domain) (Saccharomyces cerevisiae, UniProt P00937).
T4 construct: ScIGPs=ScTrpC without anthranilate synthase II domain
T4 sequence (P00937 215-484 limits assumed): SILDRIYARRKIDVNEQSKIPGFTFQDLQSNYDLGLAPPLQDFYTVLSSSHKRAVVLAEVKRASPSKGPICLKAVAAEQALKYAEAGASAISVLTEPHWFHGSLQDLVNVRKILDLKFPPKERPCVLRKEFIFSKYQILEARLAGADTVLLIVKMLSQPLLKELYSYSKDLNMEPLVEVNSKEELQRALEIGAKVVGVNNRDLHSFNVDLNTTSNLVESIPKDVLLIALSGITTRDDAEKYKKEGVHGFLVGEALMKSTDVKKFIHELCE
Description: Effect of anthranilate on IGPs activity. Format: biochemical. The following applies: anthranilate synthase II domain removed, FIG. 8. The source says:
FIG. 8. Effects of anthranilate on the activities of ScTrpC and ScIGPs (ScIGPs=ScTrpC without anthranilate synthase II domain).

Data set [5] addresses T5, 6His-eIGPs (Escherichia coli, UniProt P00909).
T5 construct: made in house; host or cells: E. coli Top10
Description: IGPs enzyme assay, inhibition by anthranilate. The following applies: isolated IGPs domain, N-terminal His-tag. Format: biochemical.
Description: as §3

Data set [6] concerns the target AgTrpC (Aspergillus niger, UniProt P05328). Description: Effect of anthranilate on IGPs activity of TrpC. Format: biochemical. The conditions noted are these: FIG. 7.
In data set [7] the target is T6, eIGPs mutant S60G (Escherichia coli, UniProt P00909, S61G).
T6 construct: made in house; host or cells: E. coli BL21
Description: IGPs enzyme assay, inhibition by anthranilate. Format: biochemical. The following applies: read-out: activity of mutant S60G inhibited. The procedure:
as §1
(§2) […]. Therefore, the effect of anthranilate on the activity of this mutants was not investigated. […] […].

Data set [8] has as its target T7, eIGPs mutant S60A (Escherichia coli, UniProt P00909, S61A).
T7 construct: made in house; host or cells: E. coli BL21
Nature of the data set: IGPs enzyme assay, inhibition by anthranilate. Format: biochemical. The procedure: as §1, §2

Data set [9] can be described thus: Michaelis constants of 6His-TrpC without and with anthranilate. In kind it is biochemical, Escherichia coli. The procedure:
as §1
To identify the mechanism of the inhibition of eIGPs by anthranilate, the effect of the inhibitor on the Michaelis constants of eIGPs was investigated with 6His-TrpC. Various concentration of CdRP (from 2.6 to 260 μM) were used when the reactions carried out in the absence of anthranilate and in the presence of 0.5 mM anthranilate, respectively. […] It is somewhat consistent with the fact that anthranilate has a distinguished binding site from the catalytic site based on the crystal structure analysis.

The nature of data set [10]: Specific activities and kinetic constants of TrpC WT and TrpC QVFQ. Format: biochemical, Escherichia coli. The method, then:
as §1

Data set [11] can be described thus: Enzyme assay of wild-type and mutant eIGPs (specific activity). The following applies: for activity relative to the wild-type enzyme: 18 μM CdRP, absence of anthranilate; for anthranilate resistance / sensitivity compared with wild-type eIGPs (in words): FIG. 3; for specific activity compared with wild type in the presence of anthranilate: more than 0.1 mM anthranilate, 180 μM CdRP. Format: biochemical, Escherichia coli. The method, then:
as §1, §2

The conditions of data set [12]: two-domain form, reference [31]; cited from earlier work.
For data set [13] the following is noted: SDS-PAGE analysis, data not shown.

Numbering of substitutions follows the chain as printed. Names and notes keep the numbering of the source.

T7 sequence (P00909 2-260 S61A): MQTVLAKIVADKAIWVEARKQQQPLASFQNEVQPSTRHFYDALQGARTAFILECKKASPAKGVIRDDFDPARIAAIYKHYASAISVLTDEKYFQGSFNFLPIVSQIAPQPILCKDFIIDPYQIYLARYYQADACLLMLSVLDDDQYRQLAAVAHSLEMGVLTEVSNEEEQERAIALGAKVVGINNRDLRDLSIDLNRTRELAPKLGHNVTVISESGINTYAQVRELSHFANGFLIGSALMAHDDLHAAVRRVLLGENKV
T6 sequence (P00909 2-260 S61G): as the sequence (P00909 2-260 S61A) above, with A60G counted along it
Sequence of AgTrpC (P05328 other isoform, or with tags, fused parts or gaps with the stated changes): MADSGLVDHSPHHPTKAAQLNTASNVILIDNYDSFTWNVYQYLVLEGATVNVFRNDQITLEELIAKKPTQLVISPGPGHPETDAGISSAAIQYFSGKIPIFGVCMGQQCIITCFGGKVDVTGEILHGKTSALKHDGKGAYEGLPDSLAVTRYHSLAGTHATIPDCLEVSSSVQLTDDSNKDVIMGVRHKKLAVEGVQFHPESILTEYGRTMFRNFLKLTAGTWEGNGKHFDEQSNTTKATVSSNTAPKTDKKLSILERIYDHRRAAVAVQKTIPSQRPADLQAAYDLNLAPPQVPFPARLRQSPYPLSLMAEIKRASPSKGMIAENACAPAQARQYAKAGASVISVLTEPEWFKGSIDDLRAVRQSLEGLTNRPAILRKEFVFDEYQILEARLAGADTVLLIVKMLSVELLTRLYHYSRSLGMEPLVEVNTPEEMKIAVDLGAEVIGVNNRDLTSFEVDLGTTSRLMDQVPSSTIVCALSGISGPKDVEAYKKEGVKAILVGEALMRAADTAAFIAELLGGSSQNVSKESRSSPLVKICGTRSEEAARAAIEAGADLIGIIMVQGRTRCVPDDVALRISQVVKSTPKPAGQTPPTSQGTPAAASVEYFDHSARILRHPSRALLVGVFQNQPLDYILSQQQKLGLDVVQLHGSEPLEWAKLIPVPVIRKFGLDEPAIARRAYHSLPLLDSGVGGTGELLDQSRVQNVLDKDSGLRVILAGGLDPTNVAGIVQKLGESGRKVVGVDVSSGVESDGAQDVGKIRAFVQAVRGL

Regarding `Nc1ccccc1C(=O)O` [anthranilate, 2-Aminobenzoic acid], in data set [1] (Lineweaver-Burk, CdRP 2.6 to 260 μM, 0 vs 0.5 mM anthranilate), the mechanism of inhibition entry is given as “noncompetitive inhibitor”. Also, the IC50 in [1] (eIGPs-PRAi two-domain form) was about 1300 µM; in data set [2] (180 μM CdRP, 30° C., pH 7.5, read-out: inhibition constant (IC50, 50% inhibitory concentration) of eIGPs-6His) it was about 700 µM; in data set [5], about 400 µM; in data set [8], about 2000 µM. Besides, in data set [2] (0.5 mM anthranilate, read-out: activity of eIGPs inhibited), the inhibition at 500 µM amounted to 46%. For the same molecule, the “regulation of ScTrpC activity by anthranilate” value in data set [3] was “activated”. Moreover, the “regulation of ScIGPs activity by anthranilate” value in [4] is “no activation was observed”. In [6], the “regulation of AgTrpC activity by anthranilate” value is recorded as “activated”. In addition, the inhibition at 2000 µM came to 20% in data set [7] and 46% in data set [8] (read-out: activity of mutant S60A inhibited).

B1: 6His-TrpC: E. coli TrpC, two-domain form, 6His-tag at the N-terminus (protein, UniProt P00909 1-453, looked up)
Tryptophan biosynthesis …: MMQTVLAKIVADKAIWVEARKQQQPLASFQNEVQPSTRHFYDALQGARTAFILECKKASPSKGVIRDDFDPARIAAIYKHYASAISVLTDEKYFQGSFNFLPIVSQIAPQPILCKDFIIDPYQIYLARYYQADACLLMLSVLDDDQYRQLAAVAHSLEMGVLTEVSNEEEQERAIALGAKVVGINNRDLRDLSIDLNRTRELAPKLGHNVTVISESGINTYAQVRELSHFANGFLIGSALMAHDDLHAAVRRVLLGENKVCGLTRGQDAKAAYDAGAIYGGLIFVATSPRCVNVEQAQEVMAAAPLQYVGVFRNHDIADVVDKAKVLSLAAVQLHGNEEQLYIDTLREALPAHVAIWKALSVGETLPAREFQHVDKYVLDNGQGGSGQRFDWSLLNGQSLGNVLLAGGLGADNCVEAAQTGCAGLDFNSAVESQPGIKDARLLASVFQTLRAY
modifications: N-terminal His6 tag
notes: E. coli TrpC, two-domain form, 6His-tag at the N-terminus
Regarding B1, the Km came to 1.53 µM in [9] (0.5 mM anthranilate) and 1.57 µM in [9] (no anthranilate). Moreover, the Vmax was determined as 2.63 µmol/min/mg in data set [9] (0.5 mM anthranilate) and 3.64 µmol/min/mg in [9] (no anthranilate).

B2: QVFQ: E. coli TrpC variant S58Q, P59V, S60F, K61Q, SEQ ID NO: 30 (protein)
chain: MQTVLAKIVADKAIWVEARKQQQPLASFQNEVQPSTRHFYDALQGARTAFILECKKAQVFQGVIRDDFDPARIAAIYKHYASAISVLTDEKYFQGSFNFLPIVSQIAPQPILCKDFIIDPYQIYLARYYQADACLLMLSVLDDDQYRQLAAVAHSLEMGVLTEVSNEEEQERAIALGAKVVGINNRDLRDLSIDLNRTRELAPKLGHNVTVISESGINTYAQVRELSHFANGFLIGSALMAHDDLHAAVRRVLLGENKVCGLTRGQDAKAAYDAGAIYGGLIFVATSPRCVNVEQAQEVMAAAPLQYVGVFRNHDIADVVDKAKVLSLAAVQLHGNEEQLYIDTLREALPAHVAIWKALSVGETLPAREFQHVDKYVLDNGQGGSGQRFDWSLLNGQSLGNVLLAGGLGADNCVEAAQTGCAGLDFNSAVESQPGIKDARLLASVFQTLRAY
modifications: EcTrpC S58Q P59V S60F K61Q
On to B2, for which the Specific activities in data set [10] (Anthranilate 0 mM) amounted to 1.886 ± 0.067 µmol/min/mg; in data set [10] (Anthranilate 0.5 mM), 1.124 ± 0.074 µmol/min/mg; in data set [10] (Anthranilate 1 mM), 1.152 ± 0.089 µmol/min/mg; in data set [10] (Anthranilate 2 mM), 0.906 ± 0.022 µmol/min/mg; in [10] (Anthranilate 3 mM), 0.866 ± 0.016 µmol/min/mg. Moreover, the Km in [10] (apparent, substrate CdRP) amounted to 6.14 ± 0.04 µM. Further, the kcat in data set [10] (apparent, substrate CdRP) is 0.027 ± 0.001 s⁻¹. For the same molecule, the “inhibition by anthranilate compared to wildtype TrpC (in words)” value in data set [10] (increasing anthranilate concentrations, FIG. 12) is recorded as “significantly less inhibited by anthranilate”.

B3: S60G (protein)
chain: B2 chain with Q58S, V59P, F60G, Q61K
modifications: EcTrpC S60G
With B3, in data set [11], the “activity relative to the wild-type enzyme” value was found to be 52%, the “anthranilate resistance / sensitivity compared with wild-type eIGPs (in words)” value is given as “significantly improved” and the “specific activity compared with wild type in the presence of anthranilate” value is reported as “higher than that of the wild type”. Besides, the “Specific activity in the absence of anthranilate” value (from here on “Specific activity in the absence”) in [11] (CdRP 18 μM) amounted to 1.13 ± 0.02 µmol/min/mg. The “Specific activity in the absence” value in data set [11] (CdRP 60 μM) was 1.75 ± 0.03 µmol/min/mg. Further, the “Specific activity in the absence” value in data set [11] (CdRP 180 μM) is 1.92 ± 0.02 µmol/min/mg. Besides, the “Km ranking among WT, S60A, S60G” value in [11] (from rates of increased absorbance) was “largest Km”.

B4: L188F (protein)
chain: B2 chain with Q58S, V59P, F60S, Q61K, L188F
modifications: EcTrpC L188F
On to B4, for which the “Specific activity in the absence” value in [11] (CdRP 180 μM) came to 1.04 ± 0.02 µmol/min/mg. In addition, the “anthranilate resistance / sensitivity compared with wild-type eIGPs (in words)” value in data set [11] is given as “slightly increased”.

B5: S60A: E. coli IGPs mutant S60A, SEQ ID NO: 3 (protein)
chain: B2 chain with Q58S, V59P, F60A, Q61K
modifications: EcTrpC S60A
For B5, the “efficiency (Kcat/Km) relative to the wild-type enzyme” value in data set [12] was “about 30%”. Further, in data set [11], the “activity relative to the wild-type enzyme” value was determined as 74%. Besides, the “Specific activity in the absence” value in [11] (CdRP 18 μM) was 1.60 ± 0.03 µmol/min/mg; in data set [11] (CdRP 60 μM), 2.05 ± 0.06 µmol/min/mg; in [11] (CdRP 180 μM) it was 2.13 ± 0.01 µmol/min/mg. Also, in data set [11], the “anthranilate resistance / sensitivity compared with wild-type eIGPs (in words)” value is given as “significantly improved”. The “specific activity compared with wild type in the presence of anthranilate” value in data set [11] is listed as “higher than that of the wild type”.

B6: I8V (protein)
chain: B2 chain with I8V, Q58S, V59P, F60S, Q61K
modifications: EcTrpC I8V
Take B6: the “Specific activity in the absence” value in data set [11] (CdRP 180 μM) came to 0.90 ± 0.03 µmol/min/mg. For the same molecule, in [11], the “anthranilate resistance / sensitivity compared with wild-type eIGPs (in words)” value is reported as “slightly increased”. Also, the “solubility of the expressed protein (in words)” value in data set [13] is given as “poorer solubility than the wild-type eIGPs”.

The record behind these values is patent US10947523B2, “Biotechnological production of L-tryptophan” (Technische Universitaet Hamburg, priority 2017, dated 2021).
